Test results as given in the nanobody polyreactivity screen of Harvey et al. (2022).

Test: yeast display, Sf9 membrane polyspecificity reagent, FACS + sequencing; frameworks hold sequencing errors
In short: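 Using colony PCR, genes from sorted yeast display clones were amplified, then sequenced on MiSeq at 2 × 250 and filtered by CDR length. The clones had been stained with 10% biotinylated, detergent-solubilized Sf9 membrane reagent for 1 hour at 4 °C and sorted by FACS into low and high (top ~1%) gates on anti-HA and streptavidin fluorescence. Polyreactivity labels come from the gate of origin.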

Sequence | polyreactivity (PSR sort gate)
QVQLGESGGGLVQAGGSLRLSCAASGRTIGYYAMGWYRQAPGKERELVAAISVSGTNTYYADSVKGRFTISRDNAKNTVNLQMNSLKPEDTAVYYCAARKVSGVYRAFYYWGQGTQVTVSS | high polyreactivity
QVQLVESAGGLVQAGGSLRLSCAASGFTFGENALGWYRQAPGKERELVAAIRYSGGSTYYADSVKGRFTLSRDNAKNTVYLQLNSLKAEDTAVYYCNADTYALGAAVIPGDEYWGQGTQVTVSS | low polyreactivity
QVQLVESGGGLVQAGGSLRLSCAASGSNFYHYAMGWYRQAPGKERELVAAITRSGGSTYYADSVKGRFTISRDNAKNTVYLQLNSLKPEDTAVYYCAKDPDSYNFLTSNWYDYWGQGTQVTVSS | low polyreactivity
QVQLVESGGGLVQAGGSLRLSCAASGLTIVQYAMGWYRQAPGKERELVARISRNGGSSYYADSVKGRFPISRDNAKNTVYLQMNSLKPEDTAVYYCNALRGPVKFYYWGQGTQVTVSS | low polyreactivity
QVQLVESGGGLVQAGGSLRLSCAASGRILASYAMGWYRQAPGKECELVAAIRYRGSTSYADSVKGRFTISRDNAKNTVYLQMNSLKPEDTAVYYCAAKWHVRGRGARYRYDYDYWGQGTQVTVSS | low polyreactivity
QVQLVESGGGLVQAGGSLRLSCAASGSTFRRYVMGGYREAAGKERELVAAISGSSGSTYYADSVKGRFTISRDNAKNTVYLQMNSLKPEDTAVYYCAAVRATQGYRYGYWGQGTQVTVSS | high polyreactivity
QVQHVESGGALVQAGGSLRLSCAASGRIFSPNAMGWYIQAPGKEWDLVAAISSGGSTYADSVKGRFTISRDNAKNTVYLQMNSLKPEDTAVYYCARTYQWTVAGRYRAYHAGYYWGQGTQVTVSS | high polyreactivity
QVQLVESGGGLVQAGGSLRLSCAACGIPLRLNAIGWYRQAPGKERELVARITWRGSTYYADSVKGRFTISRDNAKNTVYLQMNSLKPEDTAVYYCAADNRSWQPPTILPPGASDYWGQGTQVTVSS | low polyreactivity
QVQLVESGGGLDQAGGSLRLSCAASGNTFHPYAMGWYRQAPGKERELVAAITKSGGSTYYADSVKGRFTISRDNAKKTVYLQMNSLKPEDTAVYYCNADDGVTEYDYWGQGTQVTVSS | low polyreactivity
QVQLVESGGGLVQAGGSLRLSCAASGSTFDGYAMGWYRQAPGKERELVAAINWGGGSTRYADSVKGRFTISRDNAKNTVYLQMNSVKPEDTAVYYCAARRFAYYFQYLVGGYWGQGTQVTVSS | high polyreactivity
QVQLVESGGGLFQAGGSLRLSCAASGRIFGFYAMGWYRQAPGKERELVARITLSGGRTYYADSVKGRFTISRDNAKNTVYLQMNSLKPEDTAVYYCAADSIGRLWGYGYWGQGTQVTVSS | high polyreactivity
QVQLVESGGGLVQAGGSLRLSFAASGSIFYYYAMGWYRQAPGKERELVAAINYSGGSTYADSVKGRFTISLDNAKNTVYLQMNSLKPEDTAVYYCATRLYGYWPYGFEYWGQGTQVTVSS | low polyreactivity
QVQLVESGGGLVQAGGSLRLSCAASGITFYHYAMGWYRQAPGKERELVATISSRGGTTYYADSVKGRFTISRDNAKNTVYLQMNSLKPEDTAVYYCADRTWIIYPVSKYDSWGQGTQVTVSS | high polyreactivity
QVQLVESGVGLVQAGGSLRLSCAASGFTFRYYAMGWYRQAPGKERELVAAIRSGGRTYYADSVKGRFTISRDNAKNTVYLQMNSLKPEDTAVYYCNAKYKYSRGYDYWGQGTQVTVSS | high polyreactivity
QVQLVESGGGLVQAGGSLRLICAASGLIFSYYAMGWYRQAPGKERELVAAISRGGSTNYADSVKGRFTISRDNAKNTVYLQMNSLKPEDTAVYYCAARFVVRRDYGYWGQGTQVTVSS | high polyreactivity
QVQLVESGGGLVQAGGSLRLSWAASGSIFFYYTIGWYRQAPGKERELVAAISVGGSTYYADSVKGRFTISRDNAKNTVYLQMNSLKPEDTAVYYSNAVPAKGFVTVVRYYYWGQGTQVTVSS | low polyreactivity
QVQLVESGGGLVQAGGSLRLSCAASGRNFDPYAMGWYRQAPGKERELVASISRGGSTYADSVKGRFTISRDNAKNTVYLQMNRLKPEVTAVYYCNTSLYTEGDAMDYWGQGTQVTVSS | low polyreactivity
